In patent US20070172455A1:

Experiments:
[1] = target: gp130 on F10.9 melanoma cells (UniProt Q00560); assay: cell-based or functional assay
[2] = target: soluble form of gp130 (sgp130) (human) (UniProt P40189); assay: plate binding assay on sgp130 captured by anti-human gp130 mAb; rhuIL-6 at 500 ng/ml with sIL-6RδVal at 2 to 500 ng/ml, detected with rabbit anti-IL-6R; Scatchard plot
soluble form of gp130 (sgp130) (human), sequence (P40189 23-619 limits assumed): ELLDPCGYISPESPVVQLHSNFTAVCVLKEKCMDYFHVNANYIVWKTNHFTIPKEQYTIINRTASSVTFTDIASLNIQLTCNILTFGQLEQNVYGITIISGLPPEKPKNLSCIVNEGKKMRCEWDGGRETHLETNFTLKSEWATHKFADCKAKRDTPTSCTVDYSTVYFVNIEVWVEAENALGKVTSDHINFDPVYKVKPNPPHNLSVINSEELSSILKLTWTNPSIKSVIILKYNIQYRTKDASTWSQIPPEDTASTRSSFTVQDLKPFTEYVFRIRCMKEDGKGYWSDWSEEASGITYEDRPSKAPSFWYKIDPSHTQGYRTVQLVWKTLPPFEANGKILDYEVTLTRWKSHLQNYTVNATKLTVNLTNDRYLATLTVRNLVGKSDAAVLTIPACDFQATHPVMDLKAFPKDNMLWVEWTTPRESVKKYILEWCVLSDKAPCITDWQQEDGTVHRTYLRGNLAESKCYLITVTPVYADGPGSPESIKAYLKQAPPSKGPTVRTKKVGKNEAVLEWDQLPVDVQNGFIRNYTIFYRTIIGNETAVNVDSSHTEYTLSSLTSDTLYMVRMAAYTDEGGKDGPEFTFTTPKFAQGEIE

gp130 on F10.9 melanoma cells, sequence (Q00560 23-917 limits assumed): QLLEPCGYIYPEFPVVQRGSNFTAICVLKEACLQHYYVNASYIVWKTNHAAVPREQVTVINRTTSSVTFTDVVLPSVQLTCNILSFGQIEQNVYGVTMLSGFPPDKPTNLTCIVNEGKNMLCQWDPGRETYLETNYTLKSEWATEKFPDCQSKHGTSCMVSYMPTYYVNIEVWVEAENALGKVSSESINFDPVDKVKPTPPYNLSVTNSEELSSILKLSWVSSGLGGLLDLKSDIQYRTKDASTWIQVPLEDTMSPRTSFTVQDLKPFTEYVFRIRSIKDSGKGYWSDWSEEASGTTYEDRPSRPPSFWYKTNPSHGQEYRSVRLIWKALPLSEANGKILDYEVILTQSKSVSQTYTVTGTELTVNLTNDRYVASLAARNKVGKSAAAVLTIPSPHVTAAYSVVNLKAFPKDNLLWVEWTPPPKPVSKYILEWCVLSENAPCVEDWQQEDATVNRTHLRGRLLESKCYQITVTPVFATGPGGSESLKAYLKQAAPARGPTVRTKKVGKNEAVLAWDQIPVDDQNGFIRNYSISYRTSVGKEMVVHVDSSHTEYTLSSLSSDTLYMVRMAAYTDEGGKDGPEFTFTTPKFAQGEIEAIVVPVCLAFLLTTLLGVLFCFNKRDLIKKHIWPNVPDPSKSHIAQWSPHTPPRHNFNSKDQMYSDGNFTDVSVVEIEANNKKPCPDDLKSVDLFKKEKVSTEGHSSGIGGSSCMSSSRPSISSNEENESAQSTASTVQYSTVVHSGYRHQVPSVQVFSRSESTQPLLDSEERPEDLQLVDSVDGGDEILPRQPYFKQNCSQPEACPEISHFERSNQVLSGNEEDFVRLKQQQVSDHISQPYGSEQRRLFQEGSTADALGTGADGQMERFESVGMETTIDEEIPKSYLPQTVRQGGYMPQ

maximal inhibition of F10.9 cells (growth inhibition, crystal violet, 4 days); IL-6 concentration in the mixture [1]: 7.5 nM
maximal inhibition of F10.9 cells (growth inhibition, crystal violet, 4 days); sIL-6RδVal concentration in the mixture [1]: 2 nM
Kd [2]: 0.26 nM
Substance: mixture of human IL-6 and sIL-6R (rhuIL-6 together with human sIL-6RδVal) (from UniProt P08887 20-356; P05231 29-212)
